Test results published in patent US20230303698A1 (published 2023).
Read-outs that look alike come from different tables or passages of the source. Values belong to the binder of their own block, whether it stands above or below them.

Columns and labels:
Test in all cases: FACS
human 4-1BB [1] = biological target: T1, human 4-1BB (human, UniProt Q07011 24-255)
cynomolgus monkey 4-1BB = biological target: T2, cynomolgus monkey 4-1BB (cynomolgus monkey)
T2 chain: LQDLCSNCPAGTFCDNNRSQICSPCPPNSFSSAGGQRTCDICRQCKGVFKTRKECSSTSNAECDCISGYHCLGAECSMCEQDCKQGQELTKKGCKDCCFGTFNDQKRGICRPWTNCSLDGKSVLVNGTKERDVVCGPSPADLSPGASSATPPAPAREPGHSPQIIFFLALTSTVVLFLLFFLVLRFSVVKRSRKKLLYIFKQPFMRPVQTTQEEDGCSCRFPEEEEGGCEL

human 4-1BB [2] = biological target: T1, human 4-1BB; remark: listed apart in the source
human PD-L1 = human PD-L1 (human, UniProt Q9NZQ7 19-290)
Sequence of human PD-L1 (Q9NZQ7 19-290): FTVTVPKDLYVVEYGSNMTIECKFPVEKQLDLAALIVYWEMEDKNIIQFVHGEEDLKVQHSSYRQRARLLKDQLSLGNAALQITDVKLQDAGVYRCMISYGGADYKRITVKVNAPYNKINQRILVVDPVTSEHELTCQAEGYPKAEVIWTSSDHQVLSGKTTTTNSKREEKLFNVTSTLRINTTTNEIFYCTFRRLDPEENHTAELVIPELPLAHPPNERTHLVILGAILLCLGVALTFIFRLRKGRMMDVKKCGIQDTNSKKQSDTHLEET

- EC50 (human 4-1BB [1]): 1.87 nM
B1: PR003562 (bispecific antibody)
light: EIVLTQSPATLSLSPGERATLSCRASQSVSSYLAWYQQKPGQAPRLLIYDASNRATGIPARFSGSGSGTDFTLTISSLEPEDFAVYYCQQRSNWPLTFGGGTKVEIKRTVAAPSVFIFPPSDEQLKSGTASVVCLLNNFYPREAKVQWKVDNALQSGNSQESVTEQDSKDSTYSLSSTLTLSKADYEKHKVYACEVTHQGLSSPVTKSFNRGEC
heavy: EVQLLESGGGLVQPGGSLRLSCAASGFTFSSFVMSWVRQAPGKGLEWVSTISGSGRSTYYADSVKGRFTISRDNSKNTLHLQMNSLRAEDTAVYYCAKDAAAAGTKFDYWGQGTLVTVSSASTKGPSVFPLAPSSKSTSGGTAALGCLVKDYFPEPVTVSWNSGALTSGVHTFPAVLQSSGLYSLSSVVTVPSSSLGTQTYICNVNHKPSNTKVDKKVEPKSCDKTHTCPPCPAPEAAGGPSVFLFPPKPKDTLMISRTPEVTCVVVDVSHEDPEVKFNWYVDGVEVHNAKTKPREEQYNSTYRVVSVLTVLHQDWLNGKEYKCKVSNKALGAPIEKTISKAKGQPREPQVYTLPPSREEMTKNQVSLTCLVKGFYPSDIAVEWESNGQPENNYKTTPPVLDSDGSFFLYSKLTVDKSRWQQGNVFSCSVMHEALHNHYTQKSLSLSPGEPKSSDKTHTPPPPPRTEVQLLESGGGLVQLGGSLRLSCAASGFTFSRYAMTWVRQAPEKGLEWVSSISGSGDDTYYGDSVKGRFTISRDNSQNTVYLQMNSLRAEDTAVYFCAKEKAGTTGDYYYNVDVWGQGTTVTVSS

- EC50 (cynomolgus monkey 4-1BB): 0.575 nM
B2: PR001758, anti-4-1BB heavy-chain antibody 1016P0010B11 (antibody, V domains shown)
VH: EVQLLESGGGLVQLGGSLRLSCAASGFTFSRYAMTWVRQAPEKGLEWVSSISGSGDDTYYGDSVKGRFTISRDNSQNTVYLQMNSLRAEDTAVYFCAKEKAGTTGDYYYNVDVWGQGTTVTVSS

- EC50 (human 4-1BB [2]): 3.15 nM
- EC50 (human PD-L1): 1.29 nM
B3: PR003551 (bispecific antibody)
light: DIQMTQSPSTLSASVGDRVTVTCRASQSIYIWLAWYQQKPGKAPNLLIYKASSLETGVPSRFSGSGSGTEFTLTISSLQPDDFATYYCQQYYGSSRTFGQGTKVEIKRTVAAPSVFIFPPSDEQLKSGTASVVCLLNNFYPREAKVQWKVDNALQSGNSQESVTEQDSKDSTYSLSSTLTLSKADYEKHKVYACEVTHQGLSSPVTKSFNRGEC
heavy: EVQLVESGGGLVQPGGSLRLSCAASGFTFSSYWMSWVRQAPGKGLEWVANIKQEGSEKYYVDSVKGRFTISRDNAKNSLYLQMNSLRAEDTAVYYCARDRAVAGAFDIWGQGTMVTVSSASTKGPSVFPLAPSSKSTSGGTAALGCLVKDYFPEPVTVSWNSGALTSGVHTFPAVLQSSGLYSLSSVVTVPSSSLGTQTYICNVNHKPSNTKVDKKVEPKSCDKTHTCPPCPAPEAAGGPSVFLFPPKPKDTLMISRTPEVTCVVVDVSHEDPEVKFNWYVDGVEVHNAKTKPREEQYNSTYRVVSVLTVLHQDWLNGKEYKCKVSNKALGAPIEKTISKAKGQPREPQVYTLPPSREEMTKNQVSLTCLVKGFYPSDIAVEWESNGQPENNYKTTPPVLDSDGSFFLYSKLTVDKSRWQQGNVFSCSVMHEALHNHYTQKSLSLSPGEPKSSDKTHTPPPPPRTEVQLLESGGGLVQPGGSLRLSCAASGFIFSNFAMTWVRQPPEKGLKWVSSINGSGFNTYYTDSVKGRFTISRDNSRNTLYLQMNRLTAEDTAVYFCAKEGSSETDDHYYNVDVWGQGTTVTVSS

- EC50 (human PD-L1): 1.11 nM
B4: PR003550 (bispecific antibody)
light: DIQMTQSPSTLSASVGDRVTVTCRASQSIYIWLAWYQQKPGKAPNLLIYKASSLETGVPSRFSGSGSGTEFTLTISSLQPDDFATYYCQQYYGSSRTFGQGTKVEIKRTVAAPSVFIFPPSDEQLKSGTASVVCLLNNFYPREAKVQWKVDNALQSGNSQESVTEQDSKDSTYSLSSTLTLSKADYEKHKVYACEVTHQGLSSPVTKSFNRGEC
heavy: EVQLVESGGGLVQPGGSLRLSCAASGFTFSSYWMSWVRQAPGKGLEWVANIKQEGSEKYYVDSVKGRFTISRDNAKNSLYLQMNSLRAEDTAVYYCARDRAVAGAFDIWGQGTMVTVSSASTKGPSVFPLAPSSKSTSGGTAALGCLVKDYFPEPVTVSWNSGALTSGVHTFPAVLQSSGLYSLSSVVTVPSSSLGTQTYICNVNHKPSNTKVDKKVEPKSCDKTHTCPPCPAPEAAGGPSVFLFPPKPKDTLMISRTPEVTCVVVDVSHEDPEVKFNWYVDGVEVHNAKTKPREEQYNSTYRVVSVLTVLHQDWLNGKEYKCKVSNKALGAPIEKTISKAKGQPREPQVYTLPPSREEMTKNQVSLTCLVKGFYPSDIAVEWESNGQPENNYKTTPPVLDSDGSFFLYSKLTVDKSRWQQGNVFSCSVMHEALHNHYTQKSLSLSPGEPKSSDKTHTPPPPPRTEVQLVESGGGVVQPGGSLRLSCAASGFTFSNYAMTWVRQAPEKGLEWVSSISGSGVSTYYADSVKGRFTISRDNSKNTLYLQMTRLTAEDTAVYFCAKEGSSETDDHYYNVDVWGQGTTVTVSS

- EC50 (human PD-L1): 2.26 nM
B5: PR007163 (bispecific antibody)
light: DIQMTQSPSTLSASVGDRVTVTCRASQSIYIWLAWYQQKPGKAPNLLIYKASSLETGVPSRFSGSGSGTEFTLTISSLQPDDFATYYCQQYYGSSRTFGQGTKVEIKRTVAAPSVFIFPPSDEQLKSGTASVVCLLNNFYPREAKVQWKVDNALQSGNSQESVTEQDSKDSTYSLSSTLTLSKADYEKHKVYACEVTHQGLSSPVTKSFNRGEC
heavy: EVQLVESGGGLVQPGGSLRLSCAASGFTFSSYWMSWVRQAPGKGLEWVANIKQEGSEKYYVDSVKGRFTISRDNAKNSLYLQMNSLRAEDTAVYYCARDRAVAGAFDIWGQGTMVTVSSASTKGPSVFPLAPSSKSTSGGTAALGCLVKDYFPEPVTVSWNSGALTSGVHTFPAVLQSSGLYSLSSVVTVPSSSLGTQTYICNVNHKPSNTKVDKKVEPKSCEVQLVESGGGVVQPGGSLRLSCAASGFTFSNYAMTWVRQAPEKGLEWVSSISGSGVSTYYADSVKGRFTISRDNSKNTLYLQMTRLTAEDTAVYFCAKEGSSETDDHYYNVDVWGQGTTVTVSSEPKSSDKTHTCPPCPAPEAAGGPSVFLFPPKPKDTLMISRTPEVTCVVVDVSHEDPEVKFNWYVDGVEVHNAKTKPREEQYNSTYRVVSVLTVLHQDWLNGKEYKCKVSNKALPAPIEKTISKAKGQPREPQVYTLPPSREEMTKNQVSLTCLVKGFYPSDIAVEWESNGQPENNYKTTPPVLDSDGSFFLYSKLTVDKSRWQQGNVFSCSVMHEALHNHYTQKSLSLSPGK

- EC50 (human 4-1BB [2]): 1.9 nM
- EC50 (human PD-L1): 1.56 nM
B6: PR003549 (bispecific antibody)
light: DIQMTQSPSTLSASVGDRVTVTCRASQSIYIWLAWYQQKPGKAPNLLIYKASSLETGVPSRFSGSGSGTEFTLTISSLQPDDFATYYCQQYYGSSRTFGQGTKVEIKRTVAAPSVFIFPPSDEQLKSGTASVVCLLNNFYPREAKVQWKVDNALQSGNSQESVTEQDSKDSTYSLSSTLTLSKADYEKHKVYACEVTHQGLSSPVTKSFNRGEC
heavy: EVQLVESGGGLVQPGGSLRLSCAASGFTFSSYWMSWVRQAPGKGLEWVANIKQEGSEKYYVDSVKGRFTISRDNAKNSLYLQMNSLRAEDTAVYYCARDRAVAGAFDIWGQGTMVTVSSASTKGPSVFPLAPSSKSTSGGTAALGCLVKDYFPEPVTVSWNSGALTSGVHTFPAVLQSSGLYSLSSVVTVPSSSLGTQTYICNVNHKPSNTKVDKKVEPKSCDKTHTCPPCPAPEAAGGPSVFLFPPKPKDTLMISRTPEVTCVVVDVSHEDPEVKFNWYVDGVEVHNAKTKPREEQYNSTYRVVSVLTVLHQDWLNGKEYKCKVSNKALGAPIEKTISKAKGQPREPQVYTLPPSREEMTKNQVSLTCLVKGFYPSDIAVEWESNGQPENNYKTTPPVLDSDGSFFLYSKLTVDKSRWQQGNVFSCSVMHEALHNHYTQKSLSLSPGEPKSSDKTHTPPPPPRTEVQLLESGGGLVQLGGSLRLSCAASGFTFSRYAMTWVRQAPEKGLEWVSSISGSGDDTYYGDSVKGRFTISRDNSQNTVYLQMNSLRAEDTAVYFCAKEKAGTTGDYYYNVDVWGQGTTVTVSS

- EC50 (cynomolgus monkey 4-1BB): 0.485 nM
B7: Anti-4-1BB monoclonal antibody utomilumab analog (antibody, V domains shown)
VH: EVQLVQSGAEVKKPGESLRISCKGSGYSFSTYWISWVRQMPGKGLEWMGKIYPGDSYTNYSPSFQGQVTISADKSISTAYLQWSSLKASDTAMYYCARGYGIFDYWGQGTLVTVSS
VL: SYELTQPPSVSVSPGQTASITCSGDNIGDQYAHWYQQKPGQSPVLVIYQDKNRPSGIPERFSGSNSGNTATLTISGTQAMDEADYYCATYTGFGSLAVFGGGTKLTVLG

- EC50 (human 4-1BB [1]): 2.78 nM
B8: PR003564 (bispecific antibody)
light: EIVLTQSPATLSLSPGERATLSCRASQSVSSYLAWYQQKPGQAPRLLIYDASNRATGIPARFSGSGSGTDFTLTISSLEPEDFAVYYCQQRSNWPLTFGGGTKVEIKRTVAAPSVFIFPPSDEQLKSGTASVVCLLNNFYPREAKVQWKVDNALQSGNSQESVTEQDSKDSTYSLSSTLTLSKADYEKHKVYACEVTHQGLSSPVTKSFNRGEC
heavy: EVQLLESGGGLVQPGGSLRLSCAASGFTFSSFVMSWVRQAPGKGLEWVSTISGSGRSTYYADSVKGRFTISRDNSKNTLHLQMNSLRAEDTAVYYCAKDAAAAGTKFDYWGQGTLVTVSSASTKGPSVFPLAPSSKSTSGGTAALGCLVKDYFPEPVTVSWNSGALTSGVHTFPAVLQSSGLYSLSSVVTVPSSSLGTQTYICNVNHKPSNTKVDKKVEPKSCDKTHTCPPCPAPEAAGGPSVFLFPPKPKDTLMISRTPEVTCVVVDVSHEDPEVKFNWYVDGVEVHNAKTKPREEQYNSTYRVVSVLTVLHQDWLNGKEYKCKVSNKALGAPIEKTISKAKGQPREPQVYTLPPSREEMTKNQVSLTCLVKGFYPSDIAVEWESNGQPENNYKTTPPVLDSDGSFFLYSKLTVDKSRWQQGNVFSCSVMHEALHNHYTQKSLSLSPGEPKSSDKTHTPPPPPRTEVQLLESGGGLVQPGGSLRLSCAASGFIFSNFAMTWVRQPPEKGLKWVSSINGSGFNTYYTDSVKGRFTISRDNSRNTLYLQMNRLTAEDTAVYFCAKEGSSETDDHYYNVDVWGQGTTVTVSS

- EC50 (human 4-1BB [1]): 1.65 nM
B9: PR003563 (bispecific antibody)
light: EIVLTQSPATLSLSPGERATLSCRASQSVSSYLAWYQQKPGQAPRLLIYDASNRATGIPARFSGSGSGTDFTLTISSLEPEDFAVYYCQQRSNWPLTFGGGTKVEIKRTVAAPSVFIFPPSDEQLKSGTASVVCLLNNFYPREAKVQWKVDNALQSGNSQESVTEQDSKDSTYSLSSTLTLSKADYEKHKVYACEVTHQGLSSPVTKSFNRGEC
heavy: EVQLLESGGGLVQPGGSLRLSCAASGFTFSSFVMSWVRQAPGKGLEWVSTISGSGRSTYYADSVKGRFTISRDNSKNTLHLQMNSLRAEDTAVYYCAKDAAAAGTKFDYWGQGTLVTVSSASTKGPSVFPLAPSSKSTSGGTAALGCLVKDYFPEPVTVSWNSGALTSGVHTFPAVLQSSGLYSLSSVVTVPSSSLGTQTYICNVNHKPSNTKVDKKVEPKSCDKTHTCPPCPAPEAAGGPSVFLFPPKPKDTLMISRTPEVTCVVVDVSHEDPEVKFNWYVDGVEVHNAKTKPREEQYNSTYRVVSVLTVLHQDWLNGKEYKCKVSNKALGAPIEKTISKAKGQPREPQVYTLPPSREEMTKNQVSLTCLVKGFYPSDIAVEWESNGQPENNYKTTPPVLDSDGSFFLYSKLTVDKSRWQQGNVFSCSVMHEALHNHYTQKSLSLSPGEPKSSDKTHTPPPPPRTEVQLVESGGGVVQPGGSLRLSCAASGFTFSNYAMTWVRQAPEKGLEWVSSISGSGVSTYYADSVKGRFTISRDNSKNTLYLQMTRLTAEDTAVYFCAKEGSSETDDHYYNVDVWGQGTTVTVSS

- EC50 (human PD-L1): 1.93 nM
B10: PR007164 (bispecific antibody)
chain 1: EVQLVESGGGLVQPGGSLRLSCAASGFTFSSYWMSWVRQAPGKGLEWVANIKQEGSEKYYVDSVKGRFTISRDNAKNSLYLQMNSLRAEDTAVYYCARDRAVAGAFDIWGQGTMVTVSSASTKGPSVFPLAPSSKSTSGGTAALGCLVKDYFPEPVTVSWNSGALTSGVHTFPAVLQSSGLYSLSSVVTVPSSSLGTQTYICNVNHKPSNTKVDKKVEPKSC
chain 2: not shown

- EC50 (human PD-L1): 0.963 nM
B11: PR004270 (bispecific antibody)
chain 1: EVQLVESGGGLVQPGGSLRLSCAASGFTFSSYWMSWVRQAPGKGLEWVANIKQEGSEKYYVDSVKGRFTISRDNAKNSLYLQMNSLRAEDTAVYYCARDRAVAGAFDIWGQGTMVTVSSASTKGPSVFPLAPSSKSTSGGTAALGCLVKDYFPEPVTVSWNSGALTSGVHTFPAVLQSSGLYSLSSVVTVPSSSLGTQTYICNVNHKPSNTKVDKKVEPKSC
chain 2: not shown
